From article PMC6873181
Like-named read-outs stand apart in the source and are kept apart here. Blank lines part the entries; values can stand above or below the substance they belong to.

Columns and labels:
Settings in all cases: ligand
[1] = target: human insulin receptor isoform A (human) (UniProt P06213)
[2] = target: human IGF-1 receptor (human) (UniProt P08069)
[3] = target: human insulin receptor isoform A (human) (UniProt P06213); remark: listed apart in the source
[4] = target: human IGF-1 receptor (human) (UniProt P08069); remark: listed apart in the source
[5] = target: human insulin receptor isoform A (human) (UniProt P06213); remark: listed apart in the source
[6] = target: human IGF-1 receptor (human) (UniProt P08069); remark: listed apart in the source
[7] = target: human insulin receptor isoform A (human) (UniProt P06213); remark: listed apart in the source
[8] = target: human IGF-1 receptor (human) (UniProt P08069); remark: listed apart in the source
[9] = target: human insulin receptor isoform A (human) (UniProt P06213); remark: listed apart in the source
[10] = target: human IGF-1 receptor (human) (UniProt P08069); remark: listed apart in the source

Sequence of UniProt P06213 (P06213 other isoform, or with tags, fused parts or gaps): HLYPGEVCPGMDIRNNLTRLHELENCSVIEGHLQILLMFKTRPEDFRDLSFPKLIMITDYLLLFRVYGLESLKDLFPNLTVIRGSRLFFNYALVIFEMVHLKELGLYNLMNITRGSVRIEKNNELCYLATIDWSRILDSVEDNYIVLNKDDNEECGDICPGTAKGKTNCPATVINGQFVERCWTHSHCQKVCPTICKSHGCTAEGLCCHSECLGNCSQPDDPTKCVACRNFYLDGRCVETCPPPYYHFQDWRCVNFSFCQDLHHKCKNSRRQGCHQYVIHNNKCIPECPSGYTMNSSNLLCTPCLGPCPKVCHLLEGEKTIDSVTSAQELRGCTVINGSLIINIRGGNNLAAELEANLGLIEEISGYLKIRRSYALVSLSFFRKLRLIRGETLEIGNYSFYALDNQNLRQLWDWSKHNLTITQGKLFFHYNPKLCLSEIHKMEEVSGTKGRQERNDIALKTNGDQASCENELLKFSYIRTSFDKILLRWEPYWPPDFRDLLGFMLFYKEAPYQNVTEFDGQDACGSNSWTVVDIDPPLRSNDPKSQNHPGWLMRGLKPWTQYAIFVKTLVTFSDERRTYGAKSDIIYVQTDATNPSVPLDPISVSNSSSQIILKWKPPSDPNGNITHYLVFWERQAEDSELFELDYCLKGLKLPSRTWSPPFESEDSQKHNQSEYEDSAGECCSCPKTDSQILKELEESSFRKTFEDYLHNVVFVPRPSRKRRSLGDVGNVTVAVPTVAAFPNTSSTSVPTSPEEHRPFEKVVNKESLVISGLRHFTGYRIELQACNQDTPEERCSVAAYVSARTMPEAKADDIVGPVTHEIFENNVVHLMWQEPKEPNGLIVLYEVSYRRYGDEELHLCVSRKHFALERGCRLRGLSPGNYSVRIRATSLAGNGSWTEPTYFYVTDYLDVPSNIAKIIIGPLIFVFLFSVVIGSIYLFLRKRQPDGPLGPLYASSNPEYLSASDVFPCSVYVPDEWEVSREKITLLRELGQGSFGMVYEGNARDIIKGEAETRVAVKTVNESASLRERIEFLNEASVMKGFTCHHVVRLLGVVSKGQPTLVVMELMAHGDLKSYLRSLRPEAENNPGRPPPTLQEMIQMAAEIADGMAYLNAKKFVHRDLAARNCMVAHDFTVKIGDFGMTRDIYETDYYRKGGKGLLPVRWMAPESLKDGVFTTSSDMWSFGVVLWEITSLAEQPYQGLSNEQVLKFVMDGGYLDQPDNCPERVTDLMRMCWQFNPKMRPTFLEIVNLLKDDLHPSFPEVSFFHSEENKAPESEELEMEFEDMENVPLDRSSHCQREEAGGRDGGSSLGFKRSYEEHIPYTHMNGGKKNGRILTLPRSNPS

- Kd [1]: 2.96 nM
- Kd [2]: 0.5 nM
Substance: Asp-57–IGF-2 (from UniProt P01344 49-115)

- Kd [3]: 4.1 nM
- Kd [4]: 1.2 nM
Substance: His-53–IGF-2 (from UniProt P01344 49-115)

- Kd [5]: 2.9 nM
- Kd [6]: 1.5 nM
Substance: Val-53–IGF-2 (from UniProt P01344 49-115)

- Kd [7]: 2.1 nM
- Kd [8]: 1.6 nM
Substance: His-50–IGF-2 (from UniProt P01344 49-115)

- Kd [9]: 2.7 nM
- Kd [10]: 0.84 nM
Substance: Thr-50–IGF-2 (from UniProt P01344 49-115)
